Patent US20260042865A1 (Amgen, published 2026)

T1: Mouse ASGR1 protein (R&D Systems cat #2755-AS/CF) (mouse, UniProt P34927 61-284, limits assumed)
T1 construct: Bought protein; also called muASGR1
T1 sequence (looked up): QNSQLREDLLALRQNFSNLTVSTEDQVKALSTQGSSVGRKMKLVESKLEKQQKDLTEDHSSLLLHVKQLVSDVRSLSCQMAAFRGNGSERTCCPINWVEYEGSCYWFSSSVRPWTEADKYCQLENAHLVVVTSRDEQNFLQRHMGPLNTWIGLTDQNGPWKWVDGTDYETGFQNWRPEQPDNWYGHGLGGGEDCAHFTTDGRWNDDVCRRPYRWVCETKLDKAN

T2: Human ASGR1 protein (R&D Systems cat #4394-AS/CF) (human, UniProt P07306 62-291)
T2 construct: Bought protein; also called huASGR1
T2 sequence (looked up): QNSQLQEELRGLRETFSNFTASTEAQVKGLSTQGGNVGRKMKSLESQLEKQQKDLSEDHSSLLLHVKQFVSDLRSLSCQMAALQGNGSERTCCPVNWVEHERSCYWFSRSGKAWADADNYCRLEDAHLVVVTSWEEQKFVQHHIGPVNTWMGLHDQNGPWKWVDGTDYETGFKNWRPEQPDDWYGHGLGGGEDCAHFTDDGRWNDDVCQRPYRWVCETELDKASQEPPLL

B1: Non-catabolic anti-ASGR1 antibody (antibody, human IgG1, kappa, N297G, V domains shown)
VH: EVQLVESGGGLVQPGRSLKLSCAASGFTFSDYNMAWVRQAPKKGLEWVATIIYDGGSTYYRHSVKGRFTISRDNAKSTHSLQMDSLRSEDTATYYCARQTYFGSRDYFDYWGQGVMVTVSS
VL: DIQMTQSPTSLSASLGETVSIECLTSEDIYNNLAWYQQKPGKSPQLLISYASNFQDGVPSRFSGSGSGTQYSLKINSLESEDAATYFCLQDSEYPPTFGGGTKLELKR
notes: also called Non-CAT-WT; non-CAT mAb
B2: Catabolic anti-ASGR1 antibody (antibody, human IgG1, kappa, N297G, V domains shown)
VH: QVQLVESGGGVVQPGRSLRLSCAASGFTFSSYGMHWVRQAPGKGLEWVAVIWYDGSNKYYADSVKGRFTISRDNSKNTLYLQMNSLRAEDTAVYYCARDSSPYGMDVWGQGTTVTVSS
VL: DIQMTQSPSSVSASVGDRVTITCRASQGISSWLAWYQQKPGKAPKLLIYGASSLQSGVPSRFSASGSGTDFTLTISSLQPEDFATYYCQQSDSFPRTFGQGTKVEIKR
notes: also called CAT-WT; CAT mAb
B3: Catabolic bispecific scFv molecule (binds ASGR1 in a catabolic manner and Ig in a non-catabolic manner) (bispecific antibody)
scFv: ELQLQQSGAELVRPGASVKLSCTTSGFNVKDTYIHWVRQRPEQGLEWIGRIDPANGNTKYDPKFQDRATITTDTSSITAYLQLSSLTSEDTAVYYCARNYGSNYDPMDYWGQGTSLTVSSGGGGSGGGGSGGGGSDILLTQSPAILSVSPGERVSFSCRASQNIDTNIHWYQRRTNDSPRLLIKYASESISGIPSRFSGSGSGTDFTLSINSVESEDIADYYCQQSDTWPWTFGGGTKLEIKRSGGGGSQVQLVESGGGVVQPGRSLRLSCAASGFTFSSYGMHWVRQAPGKGLEWVAVIWYDGSNKYYADSVKGRFTISRDNSKNTLYLQMNSLRAEDTAVYYCARDSSPYGMDVWGQGTTVTVSSGGGGSGGGGSGGGGSDIQMTQSPSSVSASVGDRVTITCRASQGISSWLAWYQQKPGKAPKLLIYGASSLQSGVPSRFSASGSGTDFTLTISSLQPEDFATYYCQQSDSFPRTFGQGTKVEIKRHHHHHH
notes: Single chain: anti-IgG scFv, SG4S linker, catabolic anti-ASGR1 scFv, C-terminal 6xHis; also called CAT bispecific scFv molecule; CAT-bispecific scFv molecule

Experiments:
[1] = biological target: T1, Mouse ASGR1 protein (R&D Systems cat …); experiment: SPR (BIAcore 3000), mouse ASGR1 immobilized, antibody analyte, pH 6, 2 uM CaCl2
Description: (§1) Antibodies binding to ASGR1 in a pH/Ca2+-dependent manner were screened by employing surface plasmon resonance. Antibodies were screened either at pH 7.4 with 2 mM CaCl2 or at pH 6.0 with 2 μM CaCl2 to analyze the binding to ASGR1. KD values were determined by immobilizing receptor on the chip and antibodies as analytes.
(§2) Equilibrium binding affinities of the interaction between mouse ASGR1 and anti-ASGR1 antibodies were determined using BIAcore 3000. Mouse ASGR1 protein was obtained from R&D-systems (cat #2755-AS/CF) and immobilized on CM5 chips using amine coupling chemistry to a density of ˜1500 RU. On each CM5 chip a reference flow cell is used which was coupled with coupling buffer only. Antibodies were injected over immobilized ASGR1 at a concentration range of 1000 nM-0.2 nM, with a two-fold serial dilution. To determine pH/Ca-sensitive binding, runs were performed using phosphate buffered saline (PBS) with 0.01% (v/v) Tween20 and 0.05% azide with either pH 7.4/2 mM calcium chloride or pH 6.0/2 μM calcium chloride. The chip was regenerated using 0.15 M NaCl, 0.1 M glycine pH 1.5 buffer between each injection cycles. Equilibrium dissociation constants were determined using 1:1 interaction model using BIAevaluation.

[2] = biological target: T1, Mouse ASGR1 protein (R&D Systems cat …); experiment: SPR (BIAcore 3000), mouse ASGR1 immobilized, antibody analyte, pH 7.4, 2 mM CaCl2
Description: as §1, §2

[3] = biological target: T1, Mouse ASGR1 protein (R&D Systems cat …); experiment: SPR (BIAcore 3000), mouse ASGR1 immobilized, pH 7.4 with 2 mM Ca2+; pH 7.4 with 2 mM Ca2+; Table 3 experiment (comparison with bispecific scFv)
Description: (§3) The binding of anti-ASGR1 antibodies binding ASGR1 in a pH/Ca2+ dependent or independent manner was assessed by BIAcore. Equilibrium binding affinities of the interaction between (i) mouse or human ASGR1 and anti-ASGR1 antibodies; and (ii) mouse or human ASGR1 and bispecific scFv molecules of the present inventions were determined using BIAcore 3000. Mouse and human ASGR1 proteins were obtained from R&D-systems (cat #2755-AS/CF and 4394-AS/CF, respectively) and immobilized on CM5 chips using amine coupling chemistry to a density of ˜1500 RU. On each CM5 chip a reference flow cell is used which was coupled with coupling buffer only. Antibodies were injected over immobilized ASGR1 at a concentration range of 1000 nM-0.2 nM, with a two-fold serial dilution. To determine pH/Ca-sensitive binding, runs were performed using phosphate buffered saline (PBS) with 0.01% (v/v) Tween20 and 0.05% azide with either pH 7.4/2 mM calcium chloride or pH 6.0/2 μM calcium chloride. The chip was regenerated using 0.15 M NaCl, 0.1 M glycine pH 1.5 buffer between each injection cycles. Equilibrium dissociation constants were determined using 1:1 interaction model using BIAevaluation.

[4] = biological target: T1, Mouse ASGR1 protein (R&D Systems cat …); experiment: SPR (BIAcore 3000), mouse ASGR1 immobilized, antibody analyte, pH 7.4, 2 mM CaCl2; pH 7.4, 2 mM CaCl2; Table 1 experiment
[5] = biological target: T2, Human ASGR1 protein (R&D Systems cat …); experiment: SPR (BIAcore 3000), human ASGR1 immobilized, pH 7.4 with 2 mM Ca2+
Description: as §3

[6] = biological target: T1, Mouse ASGR1 protein (R&D Systems cat …); experiment: SPR (BIAcore 3000), mouse ASGR1 immobilized, pH 7.4 with 2 mM Ca2+
Description: as §3

Row | Kd [1] [nM] | Kd [2] [nM] | Kd [3] [nM] | Kd [4] [nM] | Kd [5] [nM] | Kd [6] [nM] | Binder
1 | 5.5 | 6 | – | – | – | – | B1
2 | – | – | 12.1 | 20 | 4 | – | B2
3 | – | – | – | – | 23 | 78.3 | B3
